Assays:
[1] = target: T1, human FUS (fused in sarcoma) protein (human, UniProt P35637 1-526); experiment: immunofluorescence co-localisation in Drosophila brain neurons (anti-GstO2 / anti-FUS)
T1 construct: Human FUS was expressed in Drosophila neurons with the elav-Gal4 driver and seen as cytoplasmic aggregates; also called human wild-type FUS; FUS aggregate
T1 sequence: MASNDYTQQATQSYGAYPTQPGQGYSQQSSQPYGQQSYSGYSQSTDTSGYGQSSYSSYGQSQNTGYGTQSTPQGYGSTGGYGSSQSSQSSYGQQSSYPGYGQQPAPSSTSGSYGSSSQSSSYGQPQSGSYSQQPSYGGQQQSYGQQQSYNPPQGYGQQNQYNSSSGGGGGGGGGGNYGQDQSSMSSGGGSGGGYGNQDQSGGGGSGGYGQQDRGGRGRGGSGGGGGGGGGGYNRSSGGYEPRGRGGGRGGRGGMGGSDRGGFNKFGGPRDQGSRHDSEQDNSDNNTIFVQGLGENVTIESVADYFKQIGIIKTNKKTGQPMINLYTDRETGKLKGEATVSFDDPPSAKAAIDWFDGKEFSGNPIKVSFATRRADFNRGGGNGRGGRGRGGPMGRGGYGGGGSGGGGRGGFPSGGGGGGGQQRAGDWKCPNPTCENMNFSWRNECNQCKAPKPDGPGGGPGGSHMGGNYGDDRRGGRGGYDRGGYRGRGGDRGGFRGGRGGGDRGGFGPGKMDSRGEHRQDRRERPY

[2] = target: T2, human FUS (fused in sarcoma) protein
T2 chain: T1 sequence

binding result [1]: binds
B1: Drosophila omega class glutathione transferase 2 (GstO2) (enzyme)
chain: MALPQKHFKRGSTKPELPEDGVPRFFSMAFCPFSHRVRLMLAAKHIEHHKIYVDLIEKPEWYKDFSPLGKVPALQLTGVKDQPTLVESLIIAEYLDQQYPQTRLFPTDPLQKALDKILIERFAPVVSAIYPVLTCNPNAPKDAIPNFENALDVFEVELGKRGTPYFAGQHIGIVDYMIWPWFERFPSMKINTEQKYELDTKRFEKLLKWRDLMTQDEVVQKTALDVQLHAEFQKSKTLGNPQYDIAFKGTP
notes: also called endogenous GstO2
FUS glutathionylation and FUS aggregate formation (double immunofluorescence of fly brain tissue, anti-FUS / anti-GSH) [2]: GstO2 coexpression inhibits an increase in formation of a FUS aggregate, and reduces FUS glutathionylation
